Results reported in paper PMC8809517, “Cofactor-independent RNA editing by a synthetic S-type PPR protein”.

T1: GFP-9S library array, motif 4 ND D124P (synthetic construct, D124P)
T1 chain: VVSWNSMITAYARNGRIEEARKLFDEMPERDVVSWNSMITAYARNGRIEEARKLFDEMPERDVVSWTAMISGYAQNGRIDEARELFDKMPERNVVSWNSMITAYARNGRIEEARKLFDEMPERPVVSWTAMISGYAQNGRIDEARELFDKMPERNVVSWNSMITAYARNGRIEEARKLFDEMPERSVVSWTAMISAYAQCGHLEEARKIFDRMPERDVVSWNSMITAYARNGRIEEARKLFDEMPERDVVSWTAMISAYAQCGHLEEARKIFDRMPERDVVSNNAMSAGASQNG

T2: GFP-9S library array, motif 4 ND N98E;D124P (synthetic construct, N98E;D124P)
T2 chain: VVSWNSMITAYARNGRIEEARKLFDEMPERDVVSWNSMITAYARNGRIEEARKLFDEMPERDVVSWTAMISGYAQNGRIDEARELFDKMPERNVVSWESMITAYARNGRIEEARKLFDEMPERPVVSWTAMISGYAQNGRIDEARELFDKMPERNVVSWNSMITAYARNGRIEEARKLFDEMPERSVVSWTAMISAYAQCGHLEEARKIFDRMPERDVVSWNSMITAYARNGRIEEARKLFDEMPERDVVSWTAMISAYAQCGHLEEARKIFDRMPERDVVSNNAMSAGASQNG

T3: GFP-9S library array, motif 4 ND N98Q;D124L (synthetic construct, N98Q;D124L)
T3 chain: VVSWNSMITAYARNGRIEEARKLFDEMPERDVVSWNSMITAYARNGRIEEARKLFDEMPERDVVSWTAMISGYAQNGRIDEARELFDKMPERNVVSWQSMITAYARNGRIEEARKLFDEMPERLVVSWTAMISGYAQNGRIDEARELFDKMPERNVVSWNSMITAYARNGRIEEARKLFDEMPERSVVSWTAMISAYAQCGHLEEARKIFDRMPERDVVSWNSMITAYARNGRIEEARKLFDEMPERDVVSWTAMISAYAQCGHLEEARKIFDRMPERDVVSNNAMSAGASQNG

T4: GFP-9S library array, motif 4 ND N98C;D124Y (synthetic construct, N98C;D124Y)
T4 chain: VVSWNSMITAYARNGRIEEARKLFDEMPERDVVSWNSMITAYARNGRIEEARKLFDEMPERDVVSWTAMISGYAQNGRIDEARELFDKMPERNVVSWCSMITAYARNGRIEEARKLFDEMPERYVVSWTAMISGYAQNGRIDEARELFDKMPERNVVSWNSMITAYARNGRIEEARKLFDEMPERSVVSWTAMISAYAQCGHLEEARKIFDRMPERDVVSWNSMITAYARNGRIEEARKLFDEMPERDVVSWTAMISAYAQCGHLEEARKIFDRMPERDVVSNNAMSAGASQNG

T5: GFP-9S library array, motif 4 ND N98A;D124L (synthetic construct, N98A;D124L)
T5 chain: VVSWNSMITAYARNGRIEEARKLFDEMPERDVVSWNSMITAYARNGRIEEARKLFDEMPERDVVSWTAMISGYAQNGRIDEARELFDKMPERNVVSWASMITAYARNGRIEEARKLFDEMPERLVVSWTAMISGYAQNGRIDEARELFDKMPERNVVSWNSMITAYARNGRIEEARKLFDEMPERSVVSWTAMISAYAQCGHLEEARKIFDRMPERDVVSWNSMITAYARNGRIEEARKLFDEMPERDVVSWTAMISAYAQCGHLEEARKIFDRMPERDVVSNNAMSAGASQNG


Assays:
Experiment in all cases: high-throughput RNA pulldown from lysate on Ni-NTA beads; HRP: 50 mM Tris pH 8, 150 mM NaCl, 1 mM beta-mercaptoethanol, 50 ug/ml BSA, 3 ug/ml yeast RNA, 0.5% heparin; ITC and FP: Tris pH 8, 200 mM KCl, 5% glycerol; MST: 50 mM Tris pH 8, 200 mM NaCl, 1 mM DTT, BSA, heparin, 0.05% Tween 20
Conditions in all cases: tags: N-terminal His-eGFP
[1] = molecular target: T1, GFP-9S library array, motif 4 ND D124P
[2] = molecular target: T2, GFP-9S library array, motif 4 ND …
[3] = molecular target: T3, GFP-9S library array, motif 4 ND …
[4] = molecular target: T4, GFP-9S library array, motif 4 ND …
[5] = molecular target: T5, GFP-9S library array, motif 4 ND …

Binder | Kd ([1]; label: 5' Cy5) [nM] | Kd ([2]; label: 5' Cy5) [nM] | Kd ([3]; label: 5' Cy5) [nM] | Kd ([4]; label: 5' Cy5) [nM] | Kd ([5]; label: 5' Cy5) [nM] | Kd ([1]; label: 5' IRDye 800CW) [nM] | Kd ([2]; label: 5' IRDye 800CW) [nM] | Kd ([3]; label: 5' IRDye 800CW) [nM] | Kd ([4]; label: 5' IRDye 800CW) [nM] | Kd ([5]; label: 5' IRDye 800CW) [nM]
AUUAGACGUGA (ssRNA) [Cy5-rpoA-G] | 158 | 102 | 84.1 | 72.3 | 134 | – | – | – | – | –
AUUAUACGUGA (ssRNA) [IR-rpoA-U] | – | – | – | – | – | 154 | 271 | 261 | 94.2 | 255
AUUACACGUGA (ssRNA) [Cy5-rpoA] | 123 | 130 | 122 | 56.9 | 129 | – | – | – | – | –
AUUAAACGUGA (ssRNA) [IR-rpoA-A] | – | – | – | – | – | 290 | 264 | 155 | 217 | 272
